Test results taken from patent US10154957B2, “Microneedle device having a peptide therapeutic agent and an amino acid and methods of making and using the same” (3M INNOVATIVE PROPERTIES COMPANY, priority 2011, dated 2018).
Each block holds one substance with its values, some of them ahead of it.

Legend:
Format in all cases: physicochemical
[1] = Stability of salmon calcitonin in coating on flood-coated microneedle arrays stored at 40° C./96% RH (HPLC); details: salmon calcitonin 5 mg/mL in PBS
Procedure: (§1) The protein or polypeptide content in the formulation coated on the microneedle arrays was determined using an Agilent 1100 HPLC system (Agilent Technologies, Wilmington, Del.) equipped with a binary pump, well-plated thermostated autosampler, thermostated column compartment, and a diode array UV detector. A Zorbax 300SB-C8 column (Agilent Technologies, Wilmington, Del.) having a 5 μm particle size and 2.1×150 mm inner diameter was used for the separations. The column was maintained at 50° C. The mobile phase consisted of two eluents. Eluent A was 0.1% TFA (trifluoroacetic acid) in water and eluent B was 0.1% TFA in acetonitrile (Spectrum Chemical, New Brunswick, N.J.). A linear gradient from 80/20 to 50/50 (A/B) was applied over 30 minutes. The flow rate was 0.4 mL/minute and the UV detection wavelength was set at 214 nm. The total run time was 34 minutes and the sample injection volume was 15 μL.
(§2) A sample formulation containing 5 mg/mL of salmon calcitonin and 12 mg/mL of L-histidine monohydrochloride (His-HCl) in PBS was prepared. The pH of the sample formulation was 5.5. A control formulation was also prepared containing 5 mg/mL of salmon calcitonin in PBS. […] The pH of the control formulation was 6.0-6.5. Microneedle arrays were coated with either the sample or the control formulation. The coating was applied by dropwise addition of 50 μL of the formulation to the portion of the array defined by the octagon shaped pattern of microneedles. The flood coated arrays (both sample and control formulation coated) were dried in an oven at 35° C. for about 15 hours.
(§3) After drying, the coated arrays were placed in a storage chamber that was maintained at 40° C. and 96% relative humidity (RH). The salmon calcitonin content of the coated arrays was determined following storage in the chamber for 1, 3, 7, and 14 days. At the designated time point, an array was taken from the chamber and washed with PBS (1 mL) to remove the coating from the array. An aliquot of the resulting wash solution was analyzed for salmon calcitonin content using the HPLC method described above. Reference standards were prepared by measuring the initial salmon calcitonin content of freshly coated arrays (both sample and control formulation coated). The arrays used as reference standards were stored in a refrigerator at about 4° C. and analyzed within one day of being prepared. The percentage of undegraded salmon calcitonin remaining in the coating at each time point was determined by measuring the peak area for salmon calcitonin in the selected coating and dividing it by the peak area measured for salmon calcitonin in the corresponding reference standard.
The same procedure as described in Example 3 was used with the exception that the sample formulation contained 12 mg/mL of L-arginine hydrochloride, instead of L-histidine monohydrochloride. The pH of the sample formulation was 6.0-6.5.

[2] = Stability of lysozyme in coating on flood-coated microneedle arrays stored at 40° C./96% RH (HPLC); details: lysozyme 10 mg/mL in PBS
Procedure: as §1
as §2, with “containing 10” for “containing 5”, “of lysozyme” for “of salmon calcitonin”, “was 5.5-6.0.” for “was 5.5.”, “was 6.5.” for “was 6.0-6.5.”
as §3, with “lysozyme” for “salmon calcitonin”, “(2” for “(1”, “lysozyme” for “initial salmon calcitonin”
The same procedure as described in Example 7 was used with the exception that the sample formulation contained 12 mg/mL of L-arginine hydrochloride, instead of L-histidine monohydrochloride. The pH of the sample formulation was 6.5.

[3] = Stability of PTH in coating on flood-coated microneedle arrays stored at 40° C./96% RH (HPLC); details: PTH 10 mg/mL in PBS
Procedure: as §1
Microneedle arrays were coated with either the sample or the control formulation. The coating was applied by dropwise addition of 50 μL of the formulation to the portion of the array defined by the octagon shaped pattern of microneedles. The flood coated arrays (both sample and control formulation coated) were dried in an oven at 35° C. for about 15 hours.
After drying, the coated arrays were placed in a storage chamber that was maintained at 40° C. and 96% relative humidity (RH). […] The arrays used as reference standards were stored in a refrigerator at about 4° C. and analyzed within one day of being prepared.

[4] = Amino Acid L-Arginine (Arg-HCl 12 mg/mL), Day 1 at 40° C./96% RH
[5] = Amino Acid L-Arginine (Arg-HCl 12 mg/mL), Day 3 at 40° C./96% RH
[6] = Amino Acid L-Arginine (Arg-HCl 12 mg/mL), Day 7 at 40° C./96% RH
[7] = Amino Acid L-Arginine (Arg-HCl 12 mg/mL), Day 14 at 40° C./96% RH
[8] = Amino Acid L-Arginine (Arg-HCl 12 mg/mL), Initial
[9] = Amino Acid L-Histidine (His-HCl 12 mg/mL), Day 1 at 40° C./96% RH
[10] = Amino Acid L-Histidine (His-HCl 12 mg/mL), Day 3 at 40° C./96% RH
[11] = Amino Acid L-Histidine (His-HCl 12 mg/mL), Day 7 at 40° C./96% RH
[12] = Amino Acid L-Histidine (His-HCl 12 mg/mL), Day 14 at 40° C./96% RH
[13] = Amino Acid L-Histidine (His-HCl 12 mg/mL), Initial
[14] = Amino Acid None (control), Day 1 at 40° C./96% RH
[15] = Amino Acid None (control), Day 3 at 40° C./96% RH
[16] = Amino Acid None (control), Day 7 at 40° C./96% RH
[17] = Amino Acid None (control), Day 14 at 40° C./96% RH
[18] = Amino Acid None (control), Initial

- Percent of Initial Salmon Calcitonin Content in the Coating [1, 4]: 5.8%
- Percent of Initial Salmon Calcitonin Content in the Coating [1, 5]: 0.3%
- Percent of Initial Salmon Calcitonin Content in the Coating [1, 6]: 0%
- Percent of Initial Salmon Calcitonin Content in the Coating [1, 7]: 0%
- Percent of Initial Salmon Calcitonin Content in the Coating [1, 8]: 100%
- Percent of Initial Salmon Calcitonin Content in the Coating [1, 9]: 30.3%
- Percent of Initial Salmon Calcitonin Content in the Coating [1, 10]: 31.7%
- Percent of Initial Salmon Calcitonin Content in the Coating [1, 11]: 7.5%
- Percent of Initial Salmon Calcitonin Content in the Coating [1, 12]: 2.7%
- Percent of Initial Salmon Calcitonin Content in the Coating [1, 13]: 100%
- Percent of Initial Salmon Calcitonin Content in the Coating [1, 14]: 21.5%
- Percent of Initial Salmon Calcitonin Content in the Coating [1, 15]: 0.9%
- Percent of Initial Salmon Calcitonin Content in the Coating [1, 16]: 0.1%
- Percent of Initial Salmon Calcitonin Content in the Coating [1, 17]: 0%
- Percent of Initial Salmon Calcitonin Content in the Coating [1, 18]: 100%
Substance: Salmon calcitonin

Substance: lysozyme
- Percent of Initial Lysozyme Content in the Coating [2, 4]: 52.6%
- Percent of Initial Lysozyme Content in the Coating [2, 5]: 33.1%
- Percent of Initial Lysozyme Content in the Coating [2, 6]: 22.4%
- Percent of Initial Lysozyme Content in the Coating [2, 7]: 23.0%
- Percent of Initial Lysozyme Content in the Coating [2, 8]: 100%
- Percent of Initial Lysozyme Content in the Coating [2, 9]: 100.0%
- Percent of Initial Lysozyme Content in the Coating [2, 10]: 80.6%
- Percent of Initial Lysozyme Content in the Coating [2, 11]: 60.1%
- Percent of Initial Lysozyme Content in the Coating [2, 12]: 53.3%
- Percent of Initial Lysozyme Content in the Coating [2, 13]: 100%
- Percent of Initial Lysozyme Content in the Coating [2, 14]: 26.9%
- Percent of Initial Lysozyme Content in the Coating [2, 15]: 4.4%
- Percent of Initial Lysozyme Content in the Coating [2, 16]: 1.9%
- Percent of Initial Lysozyme Content in the Coating [2, 17]: 1.9%
- Percent of Initial Lysozyme Content in the Coating [2, 18]: 100%

Substance: parathyroid hormone (1-34) (human) [PTH]
- Percent of Initial PTH Content in the Coating [3, 4]: 3.5%
- Percent of Initial PTH Content in the Coating [3, 5]: 0.8%
- Percent of Initial PTH Content in the Coating [3, 6]: 0.4%
- Percent of Initial PTH Content in the Coating [3, 7]: 0%
- Percent of Initial PTH Content in the Coating [3, 8]: 100%
- Percent of Initial PTH Content in the Coating [3, 9]: 85.2%
- Percent of Initial PTH Content in the Coating [3, 10]: 60.3%
- Percent of Initial PTH Content in the Coating [3, 11]: 23.1%
- Percent of Initial PTH Content in the Coating [3, 13]: 100%
- Percent of Initial PTH Content in the Coating [3, 14]: 1.3%
- Percent of Initial PTH Content in the Coating [3, 15]: 0%
- Percent of Initial PTH Content in the Coating [3, 16]: 0%
- Percent of Initial PTH Content in the Coating [3, 17]: 0%
- Percent of Initial PTH Content in the Coating [3, 18]: 100%
